Experimental data taken from US20190300625A1 (Regeneron, published 2019).

Assays:
[1] = target: human TMPRSS2 (NP_005647.3 with a V160M) expressed on MDCK/Tet-on/hTMPRSS2 cells (human, UniProt O15393 1-492); test: flow cytometry on MDCK/Tet-on/hTMPRSS2 cells, doxycycline-induced
[2] = target: cynomolgous monkey TMPRSS2 (XP_015302311.1 with S129L, N251S, I415V, R431Q, D492G) expressed on … (cynomolgous monkey; SEQ ID NO …); test: flow cytometry on MDCK/Tet-on/mfTMPRSS2 cells, doxycycline-induced
Chain of cynomolgous monkey TMPRSS2 (XP_015302311.1 with S129L, N251S, I415V, R431Q, D492G) expressed on … (cynomolgous monkey; SEQ ID NO …) (chain, as listed by the source S129L N251S I415V R431Q D492G S129L N251S I415V R431Q D492G limits assumed): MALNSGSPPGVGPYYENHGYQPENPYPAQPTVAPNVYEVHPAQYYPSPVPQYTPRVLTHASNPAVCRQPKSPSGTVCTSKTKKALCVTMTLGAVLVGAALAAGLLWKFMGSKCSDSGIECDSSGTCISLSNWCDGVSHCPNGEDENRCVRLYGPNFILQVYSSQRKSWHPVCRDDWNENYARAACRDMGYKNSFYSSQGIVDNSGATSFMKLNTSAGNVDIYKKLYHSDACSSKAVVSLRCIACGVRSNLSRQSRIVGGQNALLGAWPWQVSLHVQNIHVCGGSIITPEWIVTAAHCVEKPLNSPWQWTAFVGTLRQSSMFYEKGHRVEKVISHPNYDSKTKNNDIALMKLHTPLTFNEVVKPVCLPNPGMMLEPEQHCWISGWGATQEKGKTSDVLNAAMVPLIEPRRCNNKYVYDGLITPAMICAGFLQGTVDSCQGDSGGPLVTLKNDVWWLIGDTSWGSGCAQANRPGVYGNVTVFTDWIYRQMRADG

Chain of human TMPRSS2 (NP_005647.3 with a V160M) expressed on MDCK/Tet-on/hTMPRSS2 cells (O15393 whole entry V160M): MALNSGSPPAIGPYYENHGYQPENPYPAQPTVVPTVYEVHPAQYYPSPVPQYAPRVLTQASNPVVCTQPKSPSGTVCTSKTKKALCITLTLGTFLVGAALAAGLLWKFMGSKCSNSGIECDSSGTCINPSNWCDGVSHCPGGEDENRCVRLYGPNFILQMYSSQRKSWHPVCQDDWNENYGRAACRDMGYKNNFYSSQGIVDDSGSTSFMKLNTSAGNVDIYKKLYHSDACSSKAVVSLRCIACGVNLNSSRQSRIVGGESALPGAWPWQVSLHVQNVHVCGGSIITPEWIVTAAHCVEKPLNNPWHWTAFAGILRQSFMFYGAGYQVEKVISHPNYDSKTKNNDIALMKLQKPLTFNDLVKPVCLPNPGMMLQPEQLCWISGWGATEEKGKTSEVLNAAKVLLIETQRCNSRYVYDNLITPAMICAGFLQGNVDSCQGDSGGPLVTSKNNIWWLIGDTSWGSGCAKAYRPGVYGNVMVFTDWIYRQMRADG

B1: H1H7017N (antibody, human IgG1, kappa, V domains shown)
VH: QVQLVESGGGVVQPGRSLRLSCAASGFTFSSYGMHWVRQSPGKGLEWVAVIWNDGSYVYYADSVKGRFTISRDISKNTLFLQMNSLRAEDTAVYYCAREGEWVLYYFDYWGQGTLVTVSS
VL: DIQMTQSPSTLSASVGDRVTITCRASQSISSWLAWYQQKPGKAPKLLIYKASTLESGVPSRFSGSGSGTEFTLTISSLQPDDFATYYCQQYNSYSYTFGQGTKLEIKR
notes: also called anti-TMPRSS2 mAb; anti-hTMPRSS2 antibody
**Q.** How did the EC50 [1] turn out when B1 was run?
**A.** 0.46 nM

**Q.** And the EC50 [2]?
**A.** 1.06 nM
